Measured values reported in the supplement of paper PMC10724198.
± gives the standard deviation of the averaged measurements.

System: Saccharomyces cerevisiae
Assay: protein stability index of tFT-peptide fusion (C-terminal peptide) (PSI (0-1 scale)); higher = more stable (slower turnover)
Conditions: temperature: 30 C
Experimental: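 MPS profiling in S. cerevisiae of the yeast C-terminome library: the last 12 aa of each annotated ORF are fused to the C-terminus of a sfGFP-mCherry timer, after a GGGS linker. Cells are FACS-sorted into 8 mCherry/sfGFP bins and deep-sequenced. PSI runs from 0 (unstable) to 1 (stable); wild type and das1Δ backgrounds, two technical replicates each.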

[1] = genetic background: das1 deletion

Sequence	protein stability index [1]	protein stability index (genetic background: wild type)
AAISFKEAARTD [HYP2 C-terminal 12 aa]	0.725 ± 0.019	0.725 ± 0.07
AAMLTSENAREI [RRP45 C-terminal 12 aa]	0.707 ± 0.01	0.676 ± 0.035
AARADRGANFRD [SPT16 C-terminal 12 aa]	0.677 ± 0.022	0.726 ± 0.012
AAVKLSQAKSKL [FOX2 C-terminal 12 aa]	0.823 ± 0.019	0.752 ± 0.014
ADDDIFVNGFLR [YHL002C-A C-terminal 12 aa]	0.719 ± 0.02	0.7 ± 0.023
ADMTKEFERESS [GLN1 C-terminal 12 aa]	0.724 ± 0.018	0.701 ± 0.038
AFKKAQAEKSKK [NOP12 C-terminal 12 aa]	0.699 ± 0.054	0.73 ± 0.085
AGAAWFFVKLLG [CCC1 C-terminal 12 aa]	0.67 ± 0.017	0.476 ± 0.045
AGHSNTLQVSTV [CDC19 C-terminal 12 aa]	0.705 ± 0.0082	0.687 ± 0.014
AILREVQFEVFR [NTA1 C-terminal 12 aa]	0.699 ± 0.019	0.7068 ± 0.00076
AIRRGLTKKNEK [GDE1 C-terminal 12 aa]	0.72 ± 0.013	0.65687 ± 0.00059
AIYPVLSEFRKM [SPT15 C-terminal 12 aa]	0.701 ± 0.0082	0.706 ± 0.074
AKEESSDSENET [CDC123 C-terminal 12 aa]	0.6497 ± 0.004	0.703 ± 0.091
AKEWDLEDPKSM [TAF9 C-terminal 12 aa]	0.7024 ± 0.0067	0.726 ± 0.057
AKSEDISCVLII [YPL238C C-terminal 12 aa]	0.711 ± 0.025	0.646 ± 0.022
AKYALLEVLKVS [YOR102W C-terminal 12 aa]	0.581 ± 0.0095	0.187 ± 0.017
AKYSKKKNNKNK [DEG1 C-terminal 12 aa]	0.689 ± 0.043	0.668 ± 0.021
ALCICCTMDMLF [YBR016W C-terminal 12 aa]	0.6355 ± 0.0054	0.645 ± 0.048
ALDAELDAYMKG [YRA2 C-terminal 12 aa]	0.67911 ± 5.2e-05	0.7 ± 0.0058
ALDAVDDAIILD [GET1 C-terminal 12 aa]	0.716 ± 0.0098	0.659 ± 0.021
ALLDPSDTLNFM [RDR1 C-terminal 12 aa]	0.697 ± 0.024	0.704 ± 0.055

Sequence	protein stability index [1]	protein stability index (genetic background: wild type)
ALNDIAKASYIY [CTK3 C-terminal 12 aa]	0.677 ± 0.034	0.648 ± 0.016
ALNTYSSGFEIA [GID10 C-terminal 12 aa]	0.661 ± 0.0013	0.676 ± 0.02
ALSADGIYTIAN [PAU5 C-terminal 12 aa]	0.71 ± 0.0096	0.6966 ± 0.0031
ALVGIFVLAFFN [HPF1 C-terminal 12 aa]	0.29 ± 0.043	0.251 ± 0.0084
AMFNDIWKNANE [UPS3 C-terminal 12 aa]	0.7263 ± 0.0062	0.711 ± 0.015
ANCNTADCLEDH [COT1 C-terminal 12 aa]	0.6866 ± 0.0051	0.708 ± 0.012
ANLRAYFGPGFT [BUD6 C-terminal 12 aa]	0.719 ± 0.017	0.691 ± 0.0094
AQLLAYLMHKSN [LPL1 C-terminal 12 aa]	0.714 ± 0.013	0.252 ± 0.013
ASFENETVKANV [RFC3 C-terminal 12 aa]	0.706 ± 0.019	0.704 ± 0.0078
ASKESSKEDVAN [MUM2 C-terminal 12 aa]	0.69 ± 0.0096	0.661 ± 0.032
ASQAKNSIEDDV [GTR2 C-terminal 12 aa]	0.721 ± 0.021	0.689 ± 0.031
ASREREKRRQSE [VAN1 C-terminal 12 aa]	0.724 ± 0.0075	0.76362 ± 0.00071
ATAREWTKKYAV [UBC4 C-terminal 12 aa]	0.702 ± 0.0071	0.7122 ± 0.0016
ATCGSSTYFARK [MCO8 C-terminal 12 aa]	0.6938 ± 0.0026	0.746 ± 0.054
ATPQKRTGPARG [YER088C-A C-terminal 12 aa]	0.68 ± 0.018	0.66 ± 0.018
ATSILLWYSNYS [CNM1 C-terminal 12 aa]	0.739 ± 0.013	0.6973 ± 0.00096
AVIGVYGEGQFI [ATG33 C-terminal 12 aa]	0.6986 ± 0.0067	0.693 ± 0.049
AVNTLLWQEQYS [YDR042C C-terminal 12 aa]	0.739 ± 0.017	0.751 ± 0.13
AWSYLARQVLYY [YGR176W C-terminal 12 aa]	0.6986 ± 0.0046	0.688 ± 0.032
AYEFDGDKVIVG [RIP1 C-terminal 12 aa]	0.704 ± 0.018	0.6846 ± 0.0025
